From FireProtDB (doi:10.1016/0301-4622(94)00157-f)

Details: Hirudo medicinalis, Thermal, DSC, reversible: yes, whole UniProt chain shown

B1: Eglin C wild type, P01051 (protein)
chain: TEFGSELKSFPEVVGKTVDQAREYFTLHYPQYDVYFLPEGSPVTLDLRYNRVRVFYNPGTNVVNHVPHVG
Tm (pH 1.1, glycine-HCl 50mM): 41.1 °C
heat capacity change of unfolding (pH 1.1, glycine-HCl 50mM): 0.86 kcal/mol/K
unfolding enthalpy (calorimetric) (pH 1.1, glycine-HCl 50mM): 39 kcal/mol
Tm (pH 1.3, glycine-HCl 50mM): 41.3 °C
heat capacity change of unfolding (pH 1.3, glycine-HCl 50mM): 0.97 kcal/mol/K
unfolding enthalpy (calorimetric) (pH 1.3, glycine-HCl 50mM): 36.7 kcal/mol
Tm (pH 1.65, glycine-HCl 50mM): 46.1 °C
heat capacity change of unfolding (pH 1.65, glycine-HCl 50mM): 0.21 kcal/mol/K
unfolding enthalpy (calorimetric) (pH 1.65, glycine-HCl 50mM): 39.3 kcal/mol
Tm (pH 1.8, glycine-HCl 50mM): 47.3 °C
heat capacity change of unfolding (pH 1.8, glycine-HCl 50mM): 0.11 kcal/mol/K
unfolding enthalpy (calorimetric) (pH 1.8, glycine-HCl 50mM): 41.9 kcal/mol
Tm (pH 2, glycine 50mM): 46.9 °C
heat capacity change of unfolding (pH 2, glycine 50mM): 0.58 kcal/mol/K
unfolding enthalpy (calorimetric) (pH 2, glycine 50mM): 41.3 kcal/mol
Tm (pH 2.15, glycine 50mM): 51.1 °C
heat capacity change of unfolding (pH 2.15, glycine 50mM): 0.51 kcal/mol/K
unfolding enthalpy (calorimetric) (pH 2.15, glycine 50mM): 46.9 kcal/mol
Tm (pH 2.25, glycine 50mM): 51.1 °C
heat capacity change of unfolding (pH 2.25, glycine 50mM): 0.51 kcal/mol/K
unfolding enthalpy (calorimetric) (pH 2.25, glycine 50mM): 46.7 kcal/mol
Tm (pH 2.75, glycine 50mM): 57.6 °C
heat capacity change of unfolding (pH 2.75, glycine 50mM): 0.35 kcal/mol/K
unfolding enthalpy (calorimetric) (pH 2.75, glycine 50mM): 51 kcal/mol
Tm (pH 2.85, glycine 50mM): 59.5 °C
heat capacity change of unfolding (pH 2.85, glycine 50mM): 1.02 kcal/mol/K
unfolding enthalpy (calorimetric) (pH 2.85, glycine 50mM): 52.3 kcal/mol
Tm (pH 2.93, glycine 50mM): 63.9 °C
heat capacity change of unfolding (pH 2.93, glycine 50mM): 0.44 kcal/mol/K
unfolding enthalpy (calorimetric) (pH 2.93, glycine 50mM): 60.1 kcal/mol
Tm (pH 3, glycine 50mM): 63.3 °C
heat capacity change of unfolding (pH 3, glycine 50mM): 0.84 kcal/mol/K
unfolding enthalpy (calorimetric) (pH 3, glycine 50mM): 57.4 kcal/mol
Tm (pH 3.25, glycine 50mM): 69 °C
heat capacity change of unfolding (pH 3.25, glycine 50mM): 0.22 kcal/mol/K
unfolding enthalpy (calorimetric) (pH 3.25, glycine 50mM): 56.1 kcal/mol
Tm (pH 7, Sodium phosphate 50mM): 85.8 °C
heat capacity change of unfolding (pH 7, Sodium phosphate 50mM): 0.18 kcal/mol/K
unfolding enthalpy (calorimetric) (pH 7, Sodium phosphate 50mM): 74.8 kcal/mol
Tm (pH 7.01, Sodium phosphate 50mM): 85.3 °C
heat capacity change of unfolding (pH 7.01, Sodium phosphate 50mM): 0.17 kcal/mol/K
unfolding enthalpy (calorimetric) (pH 7.01, Sodium phosphate 50mM): 71.1 kcal/mol
Tm (pH 7.05, Sodium phosphate 50mM): 85.5 °C
heat capacity change of unfolding (pH 7.05, Sodium phosphate 50mM): 0.36 kcal/mol/K
unfolding enthalpy (calorimetric) (pH 7.05, Sodium phosphate 50mM): 65.5 kcal/mol
Tm (pH 8, Sodium phosphate 50mM): 86.5 °C
heat capacity change of unfolding (pH 8, Sodium phosphate 50mM): 0.51 kcal/mol/K
unfolding enthalpy (calorimetric) (pH 8, Sodium phosphate 50mM): 72.3 kcal/mol
Tm (pH 9.2, bicine 50mM): 86.3 °C
heat capacity change of unfolding (pH 9.2, bicine 50mM): 0.7 kcal/mol/K
unfolding enthalpy (calorimetric) (pH 9.2, bicine 50mM): 72.1 kcal/mol
Tm (pH 10.05, glycine 50mM): 86.5 °C
heat capacity change of unfolding (pH 10.05, glycine 50mM): 0.53 kcal/mol/K
unfolding enthalpy (calorimetric) (pH 10.05, glycine 50mM): 72.5 kcal/mol
Tm (pH 10.5, glycine 50mM): 87 °C
heat capacity change of unfolding (pH 10.5, glycine 50mM): 0.05 kcal/mol/K
unfolding enthalpy (calorimetric) (pH 10.5, glycine 50mM): 73.6 kcal/mol
Tm (pH 10.55, glycine 50mM): 86 °C
heat capacity change of unfolding (pH 10.55, glycine 50mM): 0.8 kcal/mol/K
unfolding enthalpy (calorimetric) (pH 10.55, glycine 50mM): 68.5 kcal/mol
